Tests used:
[1] = target: Fis;Xis-wt (phage lambda) (UniProt P0A6R3); test: EMSA; conditions: apparent Kd of Xis for Fis-bound DNA; 4 nM Fis; EMSA: 20 mM HEPES pH 7.5, 0.1 M NaCl, 5% glycerol, 500 ug/ml BSA, 1 mM EDTA, 1 mM DTT, 25 C; competitor 50 ug/ml poly dI/dC (34 bp), 5 ug/ml poly dI/dC (Fig 2) …
[2] = system: Xis-Arg39Ala (phage lambda); test: EMSA; conditions: no Fis; cooperative; EMSA: 20 mM HEPES pH 7.5, 0.1 M NaCl, 5% glycerol, 500 ug/ml BSA, 1 mM EDTA, 1 mM DTT, 25 C; competitor 50 ug/ml poly dI/dC (34 bp), 5 ug/ml poly dI/dC (Fig 2) …
[3] = system: Xis-Arg39Lys (phage lambda); test: EMSA; conditions: no Fis; stepwise, non-cooperative; EMSA: 20 mM HEPES pH 7.5, 0.1 M NaCl, 5% glycerol, 500 ug/ml BSA, 1 mM EDTA, 1 mM DTT, 25 C; competitor 50 ug/ml poly dI/dC (34 bp), 5 ug/ml poly dI/dC (Fig 2) …
Fis;Xis1-55 [4] = target: T1, Fis;Xis1-55 (Escherichia coli?;phage lambda, UniProt P0A6R3;P03699 1-98;1-55, |C28S); test: X-ray crystallography (Br anomalous); EMSA: 20 mM HEPES pH 7.5, 0.1 M NaCl, 5% glycerol, 500 ug/ml BSA, 1 mM EDTA, 1 mM DTT, 25 C; competitor 50 ug/ml poly dI/dC (34 bp), 5 ug/ml poly dI/dC (Fig 2); conditions: protein: recombinant;recombinant; tags: ;; chain copies: 2;1
[5] = target: the molecule itself; test: crystal structure; Fis dimer and Xis^1-55 co-bound to 27 bp DNA duplexes (FX2, FX1-2-1Xis, FX1-2-2Xis); complexes formed in 20 mM Tris-HCl pH 7.5, 200 mM Na acetate; crystals grown at 4°C in 0.1 M HEPES pH 7-7.5, 15% PEG4000
Fis;Xis1-55 [6] = target: T1, Fis;Xis1-55; test: X-ray crystallography; FX1-2-1Xis, 3.60 A; Xis at X2; EMSA: 20 mM HEPES pH 7.5, 0.1 M NaCl, 5% glycerol, 500 ug/ml BSA, 1 mM EDTA, 1 mM DTT, 25 C; competitor 50 ug/ml poly dI/dC (34 bp), 5 ug/ml poly dI/dC (Fig 2); conditions: protein: recombinant;recombinant; tags: ;; chain copies: 2;1
[7] = target: Fis;Xis1-55 (two protomers) (Escherichia coli?;phage lambda, UniProt P0A6R3;P03699 1-98;1-55, |C28S); test: X-ray crystallography; FX1-2-2Xis, 3.30 A; second Xis over X1 in reverse orientation; EMSA: 20 mM HEPES pH 7.5, 0.1 M NaCl, 5% glycerol, 500 ug/ml BSA, 1 mM EDTA, 1 mM DTT, 25 C; competitor 50 ug/ml poly dI/dC (34 bp), 5 ug/ml poly dI/dC (Fig 2); conditions: protein: recombinant;recombinant; tags: ;; chain copies: 2;2
Fis;Xis1-55 [8] = target: T1, Fis;Xis1-55; test: X-ray crystallography; FX2, 2.7 A; EMSA: 20 mM HEPES pH 7.5, 0.1 M NaCl, 5% glycerol, 500 ug/ml BSA, 1 mM EDTA, 1 mM DTT, 25 C; competitor 50 ug/ml poly dI/dC (34 bp), 5 ug/ml poly dI/dC (Fig 2); conditions: protein: recombinant;recombinant; tags: ;; chain copies: 2;1

Question: With F-X2 34 bp (CA, native) as the molecule, how does the Kd [1] read?
Answer: 400 nM

Question: Which results are given for attR 263 bp?
Answer: binding signal (fold lower affinity than Xis-wt) [2]: 15; binding signal (fold lower affinity than Xis-wt) [3]: 10

B1: FX1-2 27 bp 5-BrdU (dsDNA)
DNA 1: AATGTTGTGTTTTTAACAGACTACATT
DNA 2: AATGTAGTCTGTTAAAAACACAACATT
modifications: 5-bromodeoxyuridine at asterisked T positions (incl. nt 8 and 12 from the central T)
Question: Does B1 bind (Fis;Xis1-55 [4])?
Answer: binds

B2: Xis^1-55 (phage lambda Xis residues 1-55 with a cysteine to serine substitution at residue 28) (domain or fragment, UniProt P03699 1-55, looked up)
chain: MYLTLQEWNARQRRPRSLETVRRWVRESRIFPPPVKDGREYLFHESAVKVDLNRP
notes: Used for crystallography; The full-length Cys28Ser xis gene (pRJ2178, pET11a) was used for the gel shift assays on DNA, which are not written here; also called Xis protomer; Xis monomer
Question: Does B2 bind [5]?
Answer: binds

B3: FX1-2 27 bp (dsDNA)
DNA 1: AATGTTGTGTTTTTAACAGACTACATT
DNA 2: AATGTAGTCTGTTAAAAACACAACATT
Question: Does B3 bind (Fis;Xis1-55 [6])?
Answer: binds

Question: Does B3 bind [7]?
Answer: binds

B4: Escherichia coli Fis protein (natural protein)
chain: MFEQRVNSDVLTVSTVNSQDQVTQKPLRDSVKQALKNYFAQLNGQDVNDLYELVLAEVEQPLLDMVMQYTRGNQTRAALMMGINRGTLRKKLKKYGMN
notes: Fis, bacterial nucleoid / DNA architectural protein of Escherichia coli; the N-terminal beta-hairpin arms are not resolved in the crystals; also called Fis dimer
Question: With B4 as the molecule, how does the “stoichiometry N” value [5] read?
Answer: 2

B5: FX2 27 bp (dsDNA)
DNA 1: AATTTTGCATAAAAAACAGACTACATT
DNA 2: AATGTAGTCTGTTTTTTATGCAAAATT
Question: Does B5 bind (Fis;Xis1-55 [8])?
Answer: binds

— article PMC7145599, “Cooperative DNA binding by proteins through DNA shape complementarity” (Nucleic Acids Research, 2019)
